Substitutions are numbered along the chain they refer to.
T1: monomeric human TIGIT (Sino Biological 10917-H08H) (human, UniProt Q495A1 22-138, biotinylated in the MSD-SET assay)
T1 construct: Bought protein; also called Human TIGIT monomer; Human TIGIT-His; not shown: His tag
T1 sequence: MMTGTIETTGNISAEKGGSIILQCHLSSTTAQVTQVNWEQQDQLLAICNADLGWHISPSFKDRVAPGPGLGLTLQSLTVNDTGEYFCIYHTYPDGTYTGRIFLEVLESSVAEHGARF

T2: human TIGIT expressed on cells (human, UniProt Q495A1 22-244)
T2 construct: HEK 293 cells stably expressing human TIGIT, primary human T cells or Jurkat effector cells; the cell is named under assay; also called Human TIGIT HEK
T2 sequence: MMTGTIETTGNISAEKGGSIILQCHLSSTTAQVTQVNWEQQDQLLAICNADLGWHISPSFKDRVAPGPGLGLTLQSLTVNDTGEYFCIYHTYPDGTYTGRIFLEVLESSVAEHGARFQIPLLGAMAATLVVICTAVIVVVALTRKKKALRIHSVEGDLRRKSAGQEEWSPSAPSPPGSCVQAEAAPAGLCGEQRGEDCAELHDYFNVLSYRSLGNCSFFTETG

T3: recombinant dimeric human TIGIT-Fc (Acro Biosystems TIT-H5254) (human, UniProt Q495A1 22-141)
T3 construct: Bought protein; also called hTIGIT-Fc; not shown: Fc part of the bought fusion protein
T3 sequence: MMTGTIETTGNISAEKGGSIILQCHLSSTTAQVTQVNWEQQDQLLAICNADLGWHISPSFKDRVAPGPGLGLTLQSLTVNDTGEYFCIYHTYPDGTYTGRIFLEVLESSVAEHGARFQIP

B1: Clone 25A (antibody, V domains shown)
VH: QVQLVQSGAEVKKPGASVKVSCKASGYTFTSYAISWVRQAPGQGLEWMGWISAYNGNTKYAQKLQGRVTMTTDTSTSTAYMELRSLRSDDTAVYYCARDLSSFWSGDVLGAFDIWGQGTMVTVSS
VL: DIQMTQSPSSLSASVGDRVTITCRASQSISSYLNWYQQKPGKAPKLLIYAASSLQSGVPSRFSGSGSGTDFTLTISSLQPEDFATYYCQQSVPPRTFGGGTKVEIK
B2: Clone 25B (antibody, V domains shown)
VH: B1 VH with A33P, S35G, A53S, K59N
VL: B1 VL
B3: Clone 25D (antibody, V domains shown)
VH: B1 VH with A33P, S35G, A53S, K59N, S101K
VL: B1 VL
B4: Clone 25E (antibody, V domains shown)
VH: B1 VH with S35A, K59N, D99S, L100G
VL: B1 VL
B5: Clone 25C (antibody, V domains shown)
VH: B1 VH with A33P, S35G, A53S, K59N, D99G, L100A
VL: B1 VL
B6: Clone 16C (antibody, V domains shown)
VH: QVQLVQSGAEVKKPGSSVKVSCKASGGTFREYAISWVRQAPGQGLEWMGGIHPIFGTARYAQKFQGRVTITADESTSTAYMELSSLRSEDTAVYYCTRQSTWHKLYGTDVWGQGTTVTVSS
VL: DIQMTQSPSSVSASVGDRVTITCRASQGISSWLAWYQQKPGKAPKLLIYAASSLQSGVPSRFSGSGSGTDFTLTISSLQPEDFATYYCQQGDSLPPTFGGGTKVEIK
B7: Clone 16D (antibody, V domains shown)
VH: B6 VH with R30S, E31D, A33P, H52I, F55V, T57G, R59N, Y106F
VL: B6 VL
B8: Clone 16E (antibody, V domains shown)
VH: B6 VH with R30S, E31D, A33P, H52I, F55V, T57G, R59N, T97A, L105V
VL: B6 VL
B9: Clone 2C (antibody, V domains shown)
VH: EVQLVESGGGLVQPGGSLRLSCAASGFTFTDYYMDWVRQAPGKGLEWVGRTRNKVNSYYTEYAASVKGRFTISRDDSKNSLYLQMNSLKTEDTAVYYCARGQYYYGSDRRGYYYMDVWGQGTTVTVSS
VL: EIVLTQSPGTLSLSPGERATLSCRASQSVSSSYLAWYQQKPGQAPRLLIYGASSRATGIPDRFSGSGSGTDFTLTISRLEPEDFAVYYCQQAVPSPLTFGGGTKVEIK
B10: Clone 13D (antibody, V domains shown)
VH: QVQLVQSGAEVKKPGSSVKVSCKASGGTFLSSAISWVRQAPGQGLEWMGSIIPYFGKANYAQKFQGRVTITADESTSTAYMELSSLRSEDTAVYYCARGPSEVKGILGYVWFDPWGQGTLVTVSS
VL: not shown
B11: Clone 13A (antibody, V domains shown)
VH: B10 VH with I51L, K57T, K104G, G105A
VL: not shown
B12: Clone 13B (antibody, V domains shown)
VH: B10 VH with L30S, S31A, S32W, K104S
VL: not shown
B13: Clone 13C (antibody, IgG1, V domains shown)
VH: B10 VH with Y54L
VL: not shown
B14: Clone 54 (antibody, V domains shown)
VH: QVQLVQSGAEVKKPGASVKVSCKASGYTFTSYYMHWVRQAPGQGLEWMGIINPSGGSTSYAQKFQGRVTMTRDTSTSTVYMELSSLRSEDTAVYYCARASDSYGVGLYYGMDVWGQGTTVTVSS
VL: B9 VL with S30R, A92Y, V93Y, P94V
notes: Fully human IgG produced in yeast
B15: Clone 27 (antibody, V domains shown)
VH: B1 VH with K59N
VL: EIVMTQSPATLSVSPGERATLSCRASQSVSSNLAWYQQKPGQAPRLLIYGASTRATGIPARFSGSGSGTEFTLTISSLQSEDFAVYYCQQHANHITFGGGTKVEIK
notes: as for B14
B16: Clone 18 (antibody, V domains shown)
VH: QVQLVQSGAEVKKPGASVKVSCKASGYTFTSYYMSWVRQAPGQGLEWMGIINPSGGSTSYAQKFQGRVTMTRDTSTSTVYMELSSLRSEDTAVYYCARVRYGYADGMDVWGQGTTVTVSS
VL: B6 VL with V11L, G28S, W32Y, A34N, A50G, G91V, D92Y, S93H, P96F
notes: as for B14
B17: Clone 21 (antibody, V domains shown)
VH: QLQLQESGPGLVKPSETLSLTCTVSGGSISSSSYYWGWIRQPPGKGLEWIGSIYYSGSTYYNPSLKSRVTISVDTSKNQFSLKLSSVTAADTAVYYCARDPLYQDAPFDYWGQGTLVTVSS
VL: EIVLTQSPATLSLSPGERATLSCRASQSVSSYLAWYQQKPGQAPRLLIYDASNRATGIPARFSGSGSGTDFTLTISSLEPEDFAVYYCQQRANFPTFGGGTKVEIK
notes: as for B14
B18: Clone 22 (antibody, V domains shown)
VH: QVQLQESGPGLVKPSETLSLTCAVSGYSISSGYYWAWIRQPPGKGLEWIGSIYHSGSTYYNPSLKSRVTISVDTSKNQFSLKLSSVTAADTAVYYCARQGYYYGSSGSVDFDLWGRGTLVTVSS
VL: DIQMTQSPSSVSASVGDRVTITCRASQGISSWLAWYQQKPGKAPKLLIYAASNLQSGVPSRFSGSGSGTDFTLTISSLQPEDFATYYCQQANSLPPWTFGGGTKVEIK
notes: as for B14
B19: Clone 3 (antibody, V domains shown)
VH: B9 VH with T30S, Y32H, V55A, Y59T, D108S, R109S
VL: EIVLTQSPGTLSLSPGERATLSCRASQSVRSSYLAWYQQKPGQAPRLLIYGASSRATGIPDRFSGSGSGTDFTLTISRLEPEDFAVYYCQQVGPPLTFGGGTKVEIK
notes: as for B14
B20: Clone 14 (antibody, V domains shown)
VH: B10 VH with L30S, S32Y, Y54I, K57T, K104G, G105A
VL: not shown
notes: as for B14

What follows are binders tested against T1, monomeric human TIGIT (Sino Biological …) (assay: BLI (ForteBio), IgG on sensor, monovalent).
Procedure: (§1) Briefly, ForteBio affinity measurements were performed by loading IgGs on-line onto AHQ sensors. Sensors were equilibrated off-line in assay buffer for 30 minutes and then monitored on-line for 60 seconds for baseline establishment. Sensors with loaded IgGs were exposed to 100 nM antigen (dimeric Fc-fusion antigen or monomeric antigen) for 3 minutes, and afterwards were transferred to assay buffer for 3 minutes for off-rate measurement. All binding and dissociation kinetics were analyzed using the 1:1 binding model.
The optimized antibodies were also tested for ligand blocking in a CD155 ligand competition assay, and for binding to human TIGIT HEK, cyno TIGIT HEK, mouse TIGIT HEK, and parental HEK cell lines, as described above.

| Binder | Kd |
| --- | --- |
| B1 | 1100 pM |
| B2 | 1160 pM |
| B3 | 846 pM |
| B4 | 851 pM |
| B5 | 697 pM |
| B6 | 911 pM |
| B7 | 596 pM |
| B8 | 778 pM |
| B9 | 518 pM |
| B10 | 571 pM |
| B11 | 627 pM |
| B12 | 610 pM |
| B13 | 563 pM |

These binders were tested against T1, monomeric human TIGIT (Sino Biological …) (assay: MSD-SET solution equilibrium titration, biotinylated antigen at 50 pM).
Procedure: Antibodies (20 nM in PBS) were coated onto standard bind MSD-ECL plates overnight at 4° C. or at room temperature for 30 min. Plates were then blocked with 1% BSA for 30 min with shaking at 700 rpm, followed by three washes with wash buffer (PBSF+0.05% Tween 20). SET samples were applied and incubated on the plates for 150s with shaking at 700 rpm followed by one wash. Antigen captured on a plate was detected with 250 ng/ml sulfotag-labeled streptavidin in PBSF by incubation on the plate for 3 min. The plates were washed three times with wash buffer and then read on the MSD Sector Imager 2400 instrument using 1× Read Buffer T with surfactant. The percent free antigen was plotted as a function of titrated antibody in Prism and fit to a quadratic equation to extract the KD. To improve throughput, liquid handling robots were used throughout MSD-SET experiments, including SET sample preparation.

| Binder | Kd |
| --- | --- |
| B1 | 18 pM |
| B2 | 22 pM |
| B3 | 27 pM |
| B4 | 13 pM |
| B5 | 5.6 pM |
| B6 | 6.3 pM |
| B7 | 13 pM |
| B8 | 11 pM |
| B9 | 16 pM |
| B10 | 5 pM |
| B11 | 25 pM |
| B12 | 5.3 pM |
| B13 | 8.6 pM |

What follows are binders tested against T4, cyno TIGIT-Fc (cynomolgus monkey) (assay: BLI (ForteBio), IgG on sensor, avid).
T4 construct: not shown: Fc part
T4 sequence (chain, as listed by the source limits assumed): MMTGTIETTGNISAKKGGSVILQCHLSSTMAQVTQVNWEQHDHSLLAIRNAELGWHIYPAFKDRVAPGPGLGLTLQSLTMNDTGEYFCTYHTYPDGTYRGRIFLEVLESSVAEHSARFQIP

| Binder | Kd |
| --- | --- |
| B1 | 1640 pM |
| B2 | 1400 pM |
| B3 | 1180 pM |
| B4 | 1180 pM |
| B5 | 1240 pM |
| B6 | 4250 pM |
| B7 | 1150 pM |
| B8 | 1360 pM |
| B9 | 984 pM |

The binders below were run against T2, human TIGIT expressed on cells (assay: flow cytometry on HEK 293 cells expressing the target, MFI over parental HEK 293;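 also: bound antibody detected with PE-labelled anti-human IgG, 15 min on ice. FOB equals median fluorescence on TIGIT-positive cells divided by that on target-negative cells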).
Procedure: (§2) HEK 293 cells were engineered to stably express high levels of human, mouse or cynomolgus monkey TIGIT by lentiviral transduction. […] Cells were then washed twice with wash buffer and incubated with anti-human IgG conjugated to PE for 15 minutes on ice. Cells were then washed twice with wash buffer and analyzed by flow cytometry on a FACS Canto II instrument (BD Biosciences). Fold over background (FOB) was calculated as the median fluorescence intensity (MFI) of the anti-TIGIT clone bound to target-positive cells divided by the MFI of the anti-TIGIT clone bound to target-negative cells.

| Binder | FOB (Fold Over Background) |
| --- | --- |
| B1 | 207 fold |
| B2 | 222 fold |
| B3 | 225 fold |
| B4 | 204 fold |
| B5 | 216 fold |
| B6 | 208 fold |
| B7 | 199 fold |
| B8 | 195 fold |
| B9 | 193 fold |

These binders were tested against T5, cynomolgus monkey TIGIT expressed on cells (cynomolgus monkey) in the same assay as above.
T5 construct: HEK 293 cells stably expressing cynomolgus monkey TIGIT or cynomolgus T cells; also called Cyno TIGIT HEK
T5 sequence (chain, as listed by the source limits assumed): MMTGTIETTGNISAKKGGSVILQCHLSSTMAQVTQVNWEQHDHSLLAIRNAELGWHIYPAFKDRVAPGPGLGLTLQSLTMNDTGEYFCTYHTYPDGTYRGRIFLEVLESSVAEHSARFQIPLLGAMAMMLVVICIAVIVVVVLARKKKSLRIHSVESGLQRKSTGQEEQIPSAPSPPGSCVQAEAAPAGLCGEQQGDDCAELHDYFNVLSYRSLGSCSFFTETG
Procedure: as §2

| Binder | FOB (Fold Over Background) |
| --- | --- |
| B1 | 238 fold |
| B2 | 291 fold |
| B3 | 272 fold |
| B4 | 252 fold |
| B5 | 286 fold |
| B6 | 157 fold |
| B7 | 241 fold |
| B8 | 186 fold |
| B9 | 224 fold |

Each binder was assayed against T2, human TIGIT expressed on cells (assay: flow cytometry titration, HEK 293 cells expressing human TIGIT).
Procedure: (§3) HEK 293 cells were engineered to stably express high levels of human, mouse or cynomolgus monkey TIGIT by lentiviral transduction. […] Samples were analyzed on a CytoFLEX flow cytometer. Median fluorescence intensity of the FSC/SSC gated population was determined for each antibody concentration. NonLinear regression of Log(X) transformed data was used to generate EC50 values in GraphPad Prism 6.

| Binder | EC50 |
| --- | --- |
| B14 | 0.11 µg/mL |

What follows are binders tested against T1, monomeric human TIGIT (Sino Biological …) (assay: BLI (ForteBio Octet RED384), IgG on AHQ sensor, 100 nM antigen, 1:1 model).
Procedure: as §1

| Binder | Kd |
| --- | --- |
| B15 | 2320 pM |
| B16 | 50800 pM |
| B17 | 2180 pM |
| B18 | 13800 pM |
| B14 | 3490 pM |
| B19 | 73600 pM |
| B20 | 58700 pM |

What follows are binders tested against T3, recombinant dimeric human TIGIT-Fc … in the same assay as above.
Procedure: as §1

| Binder | Kd |
| --- | --- |
| B15 | 558 pM |
| B16 | 2390 pM |
| B17 | 585 pM |
| B18 | 790 pM |
| B14 | 689 pM |
| B19 | 2770 pM |
| B20 | 2010 pM |

Each binder was assayed against T5, cynomolgus monkey TIGIT expressed on … (assay: flow cytometry titration, HEK 293 cells expressing cynomolgus TIGIT).
Procedure: as §3

| Binder | EC50 |
| --- | --- |
| B14 | 11.4 µg/mL |

— US20230050440A1 (Seagen, published 2023)
